B1: Probable peptidoglycan glycosyltransferase FtsW (Escherichia coli (strain K12)), P0ABG4 (parent)
chain: MRLSLPRLKMPRLPGFSILVWISTALKGWVMGSREKDTDSLIMYDRTLLWLTFGLAAIGFIMVTSASMPIGQRLTNDPFFFAKRDGVYLILAFILAIITLRLPMEFWQRYSATMLLGSIILLMIVLVVGSSVKGASRWIDLGLLRIQPAELTKLSLFCYIANYLVRKGDEVRNNLRGFLKPMGVILVLAVLLLAQPDLGTVVVLFVTTLAMLFLAGAKLWQFIAIIGMGISAVVLLILAEPYRIRRVTAFWNPWEDPFGSGYQLTQSLMAFGRGELWGQGLGNSVQKLEYLPEAHTDFIFAIIGEELGYVGVVLALLMVFFVAFRAMSIGRKALEIDHRFSGFLACSIGIWFSFQALVNVGAAAGMLPTKGLTLPLISYGGSSLLIMSTAIMMLLRIDYETRLEKAQAFVRGSR
partner: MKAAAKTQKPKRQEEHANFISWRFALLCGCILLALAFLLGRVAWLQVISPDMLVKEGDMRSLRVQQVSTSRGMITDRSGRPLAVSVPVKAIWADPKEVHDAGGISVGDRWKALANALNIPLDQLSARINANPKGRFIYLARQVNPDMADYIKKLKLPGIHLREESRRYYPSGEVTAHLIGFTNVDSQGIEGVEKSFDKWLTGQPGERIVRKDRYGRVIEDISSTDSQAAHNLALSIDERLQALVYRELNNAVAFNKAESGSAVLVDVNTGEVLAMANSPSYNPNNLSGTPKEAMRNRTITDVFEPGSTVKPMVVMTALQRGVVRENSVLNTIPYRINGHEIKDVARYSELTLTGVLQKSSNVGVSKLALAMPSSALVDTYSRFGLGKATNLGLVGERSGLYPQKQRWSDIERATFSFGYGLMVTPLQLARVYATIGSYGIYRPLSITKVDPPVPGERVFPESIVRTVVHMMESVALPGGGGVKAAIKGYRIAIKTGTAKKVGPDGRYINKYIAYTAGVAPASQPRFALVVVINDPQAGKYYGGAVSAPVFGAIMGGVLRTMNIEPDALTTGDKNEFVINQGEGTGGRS
B2: Peptidoglycan D,D-transpeptidase FtsI (Escherichia coli (strain K12)), P0AD68 (parent)
chain: B1 partner
partner: B1 chain
B3: Probable peptidoglycan glycosyltransferase FtsW (Escherichia coli (strain K12)), P0ABG4 (parent)
chain: B1 chain
partner: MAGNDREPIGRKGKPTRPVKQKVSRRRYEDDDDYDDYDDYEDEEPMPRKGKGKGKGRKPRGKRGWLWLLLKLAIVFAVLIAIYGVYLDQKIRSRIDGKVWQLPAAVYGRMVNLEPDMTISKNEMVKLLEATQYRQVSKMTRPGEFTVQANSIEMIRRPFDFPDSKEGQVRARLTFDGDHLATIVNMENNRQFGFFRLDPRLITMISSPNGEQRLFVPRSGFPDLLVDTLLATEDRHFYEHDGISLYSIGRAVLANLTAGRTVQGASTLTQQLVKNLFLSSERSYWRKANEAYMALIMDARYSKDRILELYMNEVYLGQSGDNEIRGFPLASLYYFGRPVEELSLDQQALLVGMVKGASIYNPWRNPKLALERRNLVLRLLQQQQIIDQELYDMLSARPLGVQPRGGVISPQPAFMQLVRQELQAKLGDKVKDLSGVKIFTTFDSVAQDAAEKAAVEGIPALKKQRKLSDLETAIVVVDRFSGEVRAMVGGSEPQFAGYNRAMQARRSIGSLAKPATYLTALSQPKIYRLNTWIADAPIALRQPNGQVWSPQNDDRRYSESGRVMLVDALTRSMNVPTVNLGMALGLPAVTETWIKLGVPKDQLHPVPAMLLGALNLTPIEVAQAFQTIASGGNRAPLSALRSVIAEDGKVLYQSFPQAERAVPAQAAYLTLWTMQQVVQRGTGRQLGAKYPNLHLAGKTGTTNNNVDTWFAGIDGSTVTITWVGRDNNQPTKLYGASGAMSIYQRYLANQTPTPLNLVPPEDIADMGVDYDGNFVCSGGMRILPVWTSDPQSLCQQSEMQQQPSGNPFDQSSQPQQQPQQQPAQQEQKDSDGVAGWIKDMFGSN

Variants of: B1
Conditions: with ftsi_ecoli ftsI

Row | effect of a mutation on the interaction | Variant
1 | decreasing interaction | P375A
2 | decreasing interaction | P368A

Variants of: B2
Conditions: with ftsw_ecoli ftsW

Row | effect of a mutation on the interaction | Variant
3 | decreasing interaction strength | R23C

Variants of: B3
Conditions: with pbpb_ecoli mrcB

Row | effect of a mutation on the interaction | Variant
4 | decreasing interaction | P375A
5 | decreasing interaction | P368A

From IntAct's records for PubMed 20847002
